We go through 2 sequences from US5792640.

The subject of data set [1] is ZF-QQR-FN (consensus zinc fingers-FokI cleavage domain fusion) (synthetic construct). Description: cleavage_in_vitro. The settings on record: DNA strand cleaved, ~100-fold slower than duplex; RNA strand not cleaved.
The test system is the same in data set [2]. The experiment in a line: EMSA. The conditions noted are these: apparent Kd. For orientation: Mobility shift assays separate free from complexed probe on a gel.
In data set [3] the test system is ZF-QQR (synthetic construct). Description: EMSA. The settings on record: CITED ref 34; exact hybrid used in cited work not given; cited from earlier work.
Data set [4] has as its target ZF-Sp1C (synthetic construct) (UniProt P08047). The experiment in a line: EMSA. The settings on record: CITED ref 34; DNA-RNA hybrid; cited from earlier work.

Sequence of ZF-Sp1C (synthetic construct) (P08047 626-708): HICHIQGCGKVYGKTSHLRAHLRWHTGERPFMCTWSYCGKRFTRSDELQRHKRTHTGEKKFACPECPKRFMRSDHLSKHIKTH

In data set [1], “GAGCTCCTTTGGATCCAAGCTTCCCGGGGAAGAATTCGAGGAGGCTCTCGAGGTCGACTTCCTCTAGAGGTACC / GGUACCUCUAGAGGAAGUCGACCUCGAGAGCCUCCUCGAAUUCUUCCCCGGGAAGCUUGGAUCCAAACCAGCUC [QQR site DNA-RNA hybrid]” gave an activity of 1%. Also, the figures for the Kd in data set [2] and in data set [3] were 3 nM and 2.8 nM, respectively.

With GGGGCGGGG [Sp1C site DNA-RNA hybrid], the Kd in data set [4] was 40 nM.
